Reference: the supplement of paper PMC10567573
± gives the standard deviation.

Experiment: protein stability index of a GFP-peptide fusion (GPS, HEK-293T) (PSI 1-6); higher = more stable
[1] = treatment: DMSO, c terminus: a fixed tail appended
[2] = treatment: MLN4924 1 uM, 8 h, c terminus: a fixed tail appended
[3] = treatment: DMSO, c terminus: native
[4] = treatment: MLN4924 1 uM, 8 h, c terminus: native
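Also: 24-mer peptide tiles fused after GFP, lentivirally expressed, FACS-sorted into six equal bins by GFP/DsRed ratio, decoded by Illumina sequencing, PSI is the read-weighted mean bin number.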

Sequence	protein stability index [1]	protein stability index [2]	protein stability index [3]	protein stability index [4]
FFAFLHCWLNAFAEMLRFGDRMFY [SOAT2]	3.14 ± 0.56	3.44 ± 0.23	–	–
FGGGYGGGLGGGYGGGLGGGFGGG [KRT13]	2.37 ± 1.4	2.88 ± 0.15	–	–
FGGQNAHNQIAIYAHQPRTADEIP [FUT8]	3.43 ± 0.23	3.65 ± 0.33	–	–
FGGVIAFSSYNKQDNNCHFDAALV [SLC6A17]	2.42 ± 0.32	2.43 ± 0.45	–	–
FGHVMHQICAQVSFFFPPVNLPIS [NLN]	2.71 ± 0.69	3.42 ± 0.31	–	–
FGTQVENFSTFIKCIFTQFRIILG [PKD2L1]	2.35 ± 0.058	2.24 ± 0.32	–	–
FGYRPYDKNISPRENILVSLGAVG [SCD]	2.03 ± 0.44	2.75 ± 0.53	–	–
FHTMDELVEHYKKAPIFTSEHGEK [NCK2]	3.88 ± 0.35	3.97 ± 0.27	–	–
FKDEYKSENIKLREENEKLRLENS [CCDC89]	5.25 ± 0.15	5.2 ± 0.15	–	–
FKRSVRRNLSYTCRANRNCPIDQH [NR2F2]	2.71 ± 0.17	2.63 ± 0.33	–	–
FLCVLMSDWFNFHGHMCIAFELLG [CLK3]	3.2 ± 0.3	3.11 ± 0.42	–	–
FLELAVGQRIRRGSIGVWHYICPR [SLC6A17]	2.99 ± 0.97	2.18 ± 0.5	–	–
FLGSTEVEQPKGTEVVRDAVRKLK [GULP1]	4.62 ± 0.24	4.62 ± 0.16	–	–
FLIPMLEMVPEKRASAGECLRHPW [SRPK2]	2.33 ± 0.26	2.2 ± 0.12	–	–
FLIVTVAWAAHTRLFQVVGKTDDT [TMEM175]	2.86 ± 0.12	3.12 ± 0.23	–	–
FLVSTHTGEVRTARALLEDDSDTQ [PCDHGC5]	4.63 ± 0.22	4.76 ± 0.24	–	–
FLYVTGHIKEILITAGGENVPPIP [ACSBG2]	2.78 ± 0.93	2.81 ± 1.1	–	–
FPKNRVLEGVIDRYQQSKAAALKC [TRIM9]	2.78 ± 0.14	3.2 ± 0.19	–	–
FQESASTPETRAKFTQDNLCRAQR [TEKT4]	4.48 ± 0.18	4.4 ± 0.25	–	–
FQKTKNLLTGETEADPEMIKRAED [CLPTM1]	5.01 ± 0.42	5.31 ± 0.17	–	–
FRLPGLSRREREPEPPAAVDFLEP [FCHO1]	4.24 ± 0.3	4.31 ± 0.33	–	–
FSALYWFNYELVKSWLNGFRPKDQ [SLC25A39]	2.2 ± 0.39	2.61 ± 0.92	–	–
FSDDCDLPSAQDINRLVGLQNTYM [GLT8D2]	3.68 ± 0.26	3.66 ± 0.11	–	–

Sequence	protein stability index [1]	protein stability index [2]	protein stability index [3]	protein stability index [4]
FSETHADPHNSRRGFFFSHVGWLL [SCD]	2.66 ± 0.29	2.15 ± 0.21	–	–
FSHDLTLERKCEKRSVYIDARDEE [ZC3H15]	4.47 ± 0.24	4.64 ± 0.34	–	–
FSKASDSLQLVFGIELMEVDPIGH [MAGEA6]	2.27 ± 0.56	2.42 ± 0.41	–	–
FTLKEEKPKMYFMTMIVSLAAVAW [ARL6IP1]	3.4 ± 0.81	2.8 ± 0.86	–	–
FVIGHLKGAPASWWNHMHFQHHAK [FADS1]	2.65 ± 0.89	2.24 ± 0.47	–	–
FVKILKDFPEEDDPTNWLRCYYYE [NCF4]	2.25 ± 0.28	2.55 ± 0.6	–	–
FWNFKQMWDSKKIGLRQHHCRKCG [WDFY2]	2.34 ± 0.28	2.66 ± 0.45	–	–
FWYREALDISDSISESGGLNWKMT [SLC6A17]	2.17 ± 0.34	1.92 ± 0.32	–	–
FYSTSSGLANGLQLLCPWAPLSGP [VENTX]	2.88 ± 0.4	2.54 ± 0.55	–	–
GADGVMRTMAPEKLLKSMPILQGQ [SNAP91]	3.76 ± 0.32	3.77 ± 0.28	–	–
GCMLIELALRGRLQLEACGMRRKS [GOLPH3]	1.83 ± 0.31	2.25 ± 0.28	–	–
GDPLNCHSYLSGYISLLLRAEPYP [NR2F2]	2.76 ± 0.82	2.71 ± 0.65	–	–
GDWARLLEQMGALAVRGSRREREL [ZBED3]	3.13 ± 0.51	2.89 ± 0.3	–	–
GEESSKAKEVTIAKADTTSTVTPV [EHMT1]	5.55 ± 0.27	5.45 ± 0.078	–	–
GEQEFEALMRMLDNLGYRTGYPYR [ADD1]	2.15 ± 0.3	2.26 ± 0.49	–	–
GEREAIQKSVTRSCLLEEEEESGE [POP5]	5.53 ± 0.33	5.65 ± 0.18	–	–
GEVLSYLELAQFHNAHQLAAWCLH [RHOBTB1]	2.7 ± 0.81	2.35 ± 0.25	–	–
GFTDRREARKYASNLLKAGFIRHT [DVL3]	2.66 ± 0.28	2.71 ± 0.32	–	–
GGAGSSEDDAQSRRDEQDDDDKGD [GOLPH3]	5.57 ± 0.24	5.69 ± 0.28	–	–
GGDKLETMPLYLEDDIRPDIKDDI [SCD]	4.9 ± 0.4	5 ± 0.34	–	–
GGFDGSRRHTSMERYDPNIDQWSM [KLHL12]	3.76 ± 0.28	3.89 ± 0.45	–	–
GGFGSMLRALGAQIEKTTNREACR [SDE2]	3.27 ± 0.41	3.34 ± 0.13	–	–
GGFLSESKDCKPPVYLLLELEDKD [MYBL2]	3.99 ± 0.21	4.17 ± 0.32	–	–

Sequence	protein stability index [1]	protein stability index [2]	protein stability index [3]	protein stability index [4]
GGMLNFMMHDQRTGPAWNVLMWTM [SOAT2]	2.49 ± 1.2	2.07 ± 0.73	–	–
GGRKGRTLLLQGHHDKVQSLCYLQ [WDFY1]	2.54 ± 0.095	2.73 ± 0.32	–	–
GGSKYLIYRRYRQFHALQSKLEER [NCF4]	2.45 ± 0.35	2.45 ± 0.33	–	–
GGSRGAPGLLMAVGQDLYCYSYS [DCAF4]	–	–	3.16 ± 0.42	3.1 ± 1.5
GGVMYISGGITHDTFQKELMCFDP [KLHL13]	2.23 ± 0.48	2.33 ± 0.54	–	–
GIFPLSFVKILKDFPEEDDPTNWL [NCF4]	2.6 ± 0.28	2.82 ± 0.33	–	–
GIHPLSSSEVDELIHKADEVTLSE [PALM]	5.35 ± 0.2	5.23 ± 0.12	–	–
GISALVEIPKNCVVAAVGKELIIF [WDR41]	2.01 ± 1.1	2.69 ± 1.3	–	–
GKGEARARLKRSQSFGVASASSIK [SMTNL2]	4.6 ± 0.43	4.61 ± 0.38	–	–
GKGSGGNAGSYIPSYTSWYPSAHQ [DLX1]	2.56 ± 0.43	2.69 ± 0.48	–	–
GKPLIPPMNRRNILVMKHNYSQDA [NETO1]	2.98 ± 0.4	3.31 ± 0.28	–	–
GKSPSITFEYTLLQPPHESRPQPI [ADAMTSL2]	2.83 ± 0.4	2.83 ± 0.29	–	–
GLAGLLPASYTAPIMSGQGLAGFF [SLC29A1]	2.06 ± 0.25	2.1 ± 0.086	–	–
GLDFHRFYFENLWSRNSKPVHTTI [CAMK2A]	2.28 ± 0.58	2.11 ± 0.32	–	–
GLLAGVGYFAFMLFRKRLGSMILA [GDAP1]	1.99 ± 0.082	2.37 ± 0.41	–	–
GLLLGSHGLLGSPVRAAASSPVTT [CDC25B]	2.74 ± 0.28	3.26 ± 0.31	–	–
GLQPVVFVLFLFAYLVTVRGNLSI [OR3A1]	2.6 ± 0.47	2.19 ± 0.21	–	–
GLQSAQPTEGQGSLLTNWPSVPPT [MYBL2]	4.02 ± 0.28	4.14 ± 0.092	–	–
GMESYQEVTVQRNCCLTLCNFSIP [ZER1]	2.41 ± 0.52	2.1 ± 0.42	–	–
GMPSSLAHRIAAQTLLGTAKMLLH [PYCR3]	2.4 ± 1.2	2.29 ± 0.3	–	–
GNSTQATVRDAVVGRPSMDKKAQ [ATL3]	–	–	5.28 ± 0.13	5.21 ± 0.23
GQIIKDIDSGSPAEEAGLKNNDLV [PDZK1]	5.31 ± 0.33	5.27 ± 0.079	–	–
GRAGAVGTPGERGPPGPPGPPGPP [EMID1]	4.6 ± 0.44	4.68 ± 0.22	–	–

Sequence	protein stability index [1]	protein stability index [2]	protein stability index [3]	protein stability index [4]
GRLELKPLLLRLPRICQRNLMSLL [FANCE]	2.63 ± 0.33	2.7 ± 0.23	–	–
GRLILSTIRLRPRQVLCEKCKSTL [PWWP2B]	2.2 ± 0.4	2.56 ± 0.55	–	–
GRNHTPFLGHHSFSVRPGTEATIS [SCNN1D]	3.65 ± 0.14	3.78 ± 0.25	–	–
GRSSMGTGLSGGKRPSQEEDTQSI [CRY1]	5.51 ± 0.17	5.37 ± 0.29	–	–
GSKLEKGHLRGPEIRDWRGPQLEG [ZSWIM9]	3.87 ± 0.35	3.85 ± 0.2	–	–
GSKSQRYSGAYGASVSDEELKRRV [CHCHD3]	4.99 ± 0.29	4.86 ± 0.18	–	–
GSLHYTTLRTLTGQDTMLKAMFSG [KCTD13]	2.46 ± 0.26	2.61 ± 0.21	–	–
GSSASTSPAPLDTCPSSSTASSIS [DYRK1B]	5.22 ± 0.12	5.3 ± 0.078	–	–
GSSDKVYAHQMVRTDSREQKLDAF [MLH1]	4.12 ± 0.13	4.13 ± 0.27	–	–
GTAHIPPTMHLESPALQVMGPAQE [ZNF449]	4.78 ± 0.25	4.73 ± 0.17	–	–
GTDEEEEEFIEEEDQEEEESTEGK [TRIM63]	5.71 ± 0.17	5.56 ± 0.24	–	–
GTKCHGCDFKIDAGDRFLEALGFS [PDLIM7]	2.63 ± 0.22	2.42 ± 0.36	–	–
GTTLVVGLLAGVGYFAFMLFRKRL [GDAP1]	2.41 ± 0.49	2.63 ± 0.22	–	–
GVGKSALTVQFVQGIFVEKYDPTI [RAP1B]	2.25 ± 0.28	2.07 ± 0.25	–	–
GVMLYTLLVGRYPFHDSDPSALFS [TRIB1]	2.52 ± 0.37	2.7 ± 0.46	–	–
GVVVCEADTGRIHRFVEKPQVFVS [GMPPB]	2.25 ± 0.19	2.28 ± 0.3	–	–
GVYMTDITPQGVAMRAGVLADDHL [PDZK1]	3.54 ± 0.46	3.34 ± 0.21	–	–
GWLPSHEGHLDDGGYTPDLKMSYS [RBMY1A1]	3.62 ± 0.15	3.5 ± 0.36	–	–
HAPGVPKILVGNRLHLAFKRQVPT [RAB40B]	2.49 ± 0.5	2.6 ± 0.35	–	–
HCLHSAGHSQPDGAYSSASSFSRP [DLX1]	3.53 ± 0.27	3.61 ± 0.17	–	–
